{"source": "paper PMC6428754", "about": "“Peptidoglycan Remodeling Enables Escherichia coli To Survive Severe Outer Membrane Assembly Defect” (mBio, 2019)", "biological_target": "T1, oligohistidine-tagged PBP1B (E. coli, UniProt P02919 1-844)", "T1 construct": "PBP1B, bifunctional peptidoglycan synthase (glycosyltransferase and DD-transpeptidase) of Escherichia coli; source: purified", "T1 sequence (looked up)": "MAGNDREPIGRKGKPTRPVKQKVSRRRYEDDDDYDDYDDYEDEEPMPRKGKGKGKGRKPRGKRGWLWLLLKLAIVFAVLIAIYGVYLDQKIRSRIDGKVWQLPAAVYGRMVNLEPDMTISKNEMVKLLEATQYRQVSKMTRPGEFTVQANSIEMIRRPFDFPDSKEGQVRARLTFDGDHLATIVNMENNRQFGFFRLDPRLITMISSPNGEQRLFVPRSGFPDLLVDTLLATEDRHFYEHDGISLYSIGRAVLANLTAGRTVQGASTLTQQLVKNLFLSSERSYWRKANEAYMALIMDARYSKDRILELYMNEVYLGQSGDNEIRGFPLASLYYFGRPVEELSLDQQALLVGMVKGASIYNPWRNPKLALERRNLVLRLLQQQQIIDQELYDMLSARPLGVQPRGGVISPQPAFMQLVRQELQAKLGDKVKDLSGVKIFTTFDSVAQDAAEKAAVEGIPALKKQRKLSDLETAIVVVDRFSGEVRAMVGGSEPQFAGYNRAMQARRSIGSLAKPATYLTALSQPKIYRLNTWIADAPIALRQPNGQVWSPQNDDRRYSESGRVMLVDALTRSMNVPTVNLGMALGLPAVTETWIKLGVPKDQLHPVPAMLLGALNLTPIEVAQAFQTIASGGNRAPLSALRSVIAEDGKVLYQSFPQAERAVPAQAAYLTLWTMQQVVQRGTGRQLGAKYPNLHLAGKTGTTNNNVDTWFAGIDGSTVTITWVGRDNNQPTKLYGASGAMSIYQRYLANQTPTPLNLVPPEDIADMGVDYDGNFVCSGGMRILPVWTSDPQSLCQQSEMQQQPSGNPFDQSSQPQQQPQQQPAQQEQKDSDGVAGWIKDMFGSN", "assay": "MST; microscale thermophoresis curves; means ± SD from three independent experiments; which partner was labelled is not told (Text S1)", "settings": "both partners purified", "data": [{"binder": "LdtD (LD-transpeptidase, formerly YcbB), untagged (enzyme, E. coli, UniProt P22525 1-615, looked up, LdtD (formerly YcbB), LD-transpeptidase of Escherichia coli; Printed as 'untagged LdtD'; source: purified) MLLNMMCGRQLSAISLCLAVTFAPLFNAQADEPEVIPGDSPVAVSEQGEALPQAQATAIMAGIQPLPEGAAEKARTQIESQLPAGYKPVYLNQLQLLYAARDMQPMWENRDAVKAFQQQLAEVAIAGFQPQFNKWVELLTDPGVNGMARDVVLSDAMMGYLHFIANIPVKGTRWLYSSKPYALATPPLSVINQWQLALDKGQLPTFVAGLAPQHPQYAAMHESLLALLCDTKPWPQLTGKATLRPGQWSNDVPALREILQRTGMLDGGPKITLPGDDTPTDAVVSPSAVTVETAETKPMDKQTTSRSKPAPAVRAAYDNELVEAVKRFQAWQGLGADGAIGPATRDWLNVTPAQRAGVLALNIQRLRLLPTELSTGIMVNIPAYSLVYYQNGNQVLDSRVIVGRPDRKTPMMSSALNNVVVNPPWNVPPTLARKDILPKVRNDPGYLESHGYTVMRGWNSREAIDPWQVDWSTITASNLPFRFQQAPGPRNSLGRYKFNMPSSEAIYLHDTPNHNLFKRDTRALSSGCVRVNKASDLANMLLQDAGWNDKRISDALKQGDTRYVNIRQSIPVNLYYLTAFVGADGRTQYRTDIYNYDLPARSSSQIVSKAEQLIR", "values": [{"measurement": "Kd", "value": 112, "unit": "nM"}]}]}
